Measurements: article doi:10.1101/2021.10.29.466502 (bioRxiv, 2021)

T1: thrombopoietin receptor MPL on Ba/F3-HuMpl cells (human, UniProt P40238 26-635, N-glycans (consensus sites N117, N178, N298, N358))
T1 sequence: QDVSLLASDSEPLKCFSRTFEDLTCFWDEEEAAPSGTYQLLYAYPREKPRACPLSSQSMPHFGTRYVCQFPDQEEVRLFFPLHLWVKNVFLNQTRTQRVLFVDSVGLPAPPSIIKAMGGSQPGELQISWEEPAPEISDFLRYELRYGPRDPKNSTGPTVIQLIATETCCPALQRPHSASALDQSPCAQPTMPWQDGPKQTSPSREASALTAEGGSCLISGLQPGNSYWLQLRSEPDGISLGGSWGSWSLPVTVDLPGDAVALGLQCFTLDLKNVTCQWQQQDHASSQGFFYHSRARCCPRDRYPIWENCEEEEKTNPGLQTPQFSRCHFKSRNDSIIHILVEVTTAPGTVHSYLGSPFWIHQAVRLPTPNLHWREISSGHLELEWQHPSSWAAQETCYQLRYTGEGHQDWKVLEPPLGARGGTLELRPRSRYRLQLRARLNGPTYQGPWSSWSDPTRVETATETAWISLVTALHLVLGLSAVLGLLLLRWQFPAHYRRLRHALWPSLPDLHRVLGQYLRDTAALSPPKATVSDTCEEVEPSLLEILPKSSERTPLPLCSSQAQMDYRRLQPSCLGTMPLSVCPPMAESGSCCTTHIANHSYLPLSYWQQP

B1: N-terminal His-tagged recombinant ThC (rThC) (natural protein)
chain: TACTTGPQTISFPAGLIVSLNASVQSSRNESVEVKDSNGNTVSRGSGSSSSGGTFTVINMEPPTFISDGNDYTVELSPQATPGILQTESSRVDNGRLIWQNYAFGANDGGCIVGDRDFNDVFVLITGLVRG

Tests used:
[1] = target: thrombopoietin receptor MPL on Ba/F3-HuMpl cells (human) (UniProt P40238)
[2] = target: T1, thrombopoietin receptor MPL on …; assay: cell-based or functional assay

Molecule | proliferation of Ba/F3-HuMpl cells, EC50 [1] | proliferation of Ba/F3-HuMpl cells, EC50 [2]
PA-IIL (from UniProt Q9HYN5 1-115) (natural protein) | 17.5 µg/mL | –
B1 | – | 0.26 µg/mL
